Measurements from the Human Domainome abundance scans (Beltran et al. 2025).
± gives the uncertainty stated by the source.

B1: Heterogeneous nuclear ribonucleoprotein U-like protein 2, residues 1 to 40; numbered along this chain, Q1KMD3 (parent)
chain: MEVKRLKVTELRSELQRRGLDSRGLKVDLAQRLQEALDAE

Variants of: B1
Experiment: abundance fitness (aPCA) (normalised: wild type 0, dead -1); higher = more abundant; growth selection in yeast, the domain comes from the species named
Conditions: Homo sapiens

Compared with L25V, L25M is lower in abundance fitness: 0.066 ± 0.049 for the first, -0.096 ± 0.084 for the second.

First: L25Q
Second: L25A
The abundance fitness of the first is lower: 0.046 ± 0.06 for the first, 0.189 ± 0.054 for the second.

R23Y and R23H are within error of each other in abundance fitness: 0.041 ± 0.24 for the first, 0.092 ± 0.16 for the second.

Compared with R23K, R23T is higher in abundance fitness: 0.082 ± 0.073 for the first, 0.225 ± 0.066 for the second.

Compared with R23D, R23P is lower in abundance fitness: 0.136 ± 0.067 for the first, -0.6 ± 0.096 for the second.

R23N and R23Q are within error of each other in abundance fitness: 0.127 ± 0.07 for the first, 0.114 ± 0.054 for the second.

First: R23G
Second: R23M
The abundance fitness of the first is higher: 0.091 ± 0.05 for the first, -0.232 ± 0.13 for the second.

R23E and R23A are within error of each other in abundance fitness: 0.166 ± 0.065 for the first, 0.158 ± 0.057 for the second.

First: R23V
Second: R23S
The abundance fitness of the first is lower: -0.019 ± 0.058 for the first, 0.167 ± 0.077 for the second.

First: R23L
Second: R23W
The abundance fitness of the first is higher: -0.057 ± 0.056 for the first, -0.185 ± 0.061 for the second.

Going from R23C to R23F, the abundance fitness falls from 0.062 ± 0.078 to -0.137 ± 0.079.

Going from S22L to S22R, the abundance fitness falls from -0.153 ± 0.065 to -0.402 ± 0.055.

S22E and S22H are within error of each other in abundance fitness: -0.02 ± 0.056 for the first, 0.08 ± 0.12 for the second.

S22P and S22M are within error of each other in abundance fitness: 0.12 ± 0.085 for the first, -0.064 ± 0.1 for the second.

Going from S22K to S22G, the abundance fitness rises from -0.333 ± 0.079 to -0.052 ± 0.053.

Going from S22Q to S22T, the abundance fitness rises from 0 ± 0.064 to 0.142 ± 0.07.

S22A and S22W are within error of each other in abundance fitness: 0.063 ± 0.054 for the first, -0.011 ± 0.072 for the second.

S22C and S22V are within error of each other in abundance fitness: -0.08 ± 0.1 for the first, 0.079 ± 0.059 for the second.

Going from S22F to K26L, the abundance fitness falls from 0.176 ± 0.28 to -0.179 ± 0.053.

K26M and K26A are within error of each other in abundance fitness: -0.048 ± 0.072 for the first, -0.066 ± 0.056 for the second.

Compared with K26T, K26P is higher in abundance fitness: -0.154 ± 0.082 for the first, -0.002 ± 0.069 for the second.

K26D and K26Q are within error of each other in abundance fitness: -0.019 ± 0.09 for the first, 0.008 ± 0.095 for the second.

K26S and K26R are within error of each other in abundance fitness: -0.189 ± 0.073 for the first, -0.074 ± 0.051 for the second.

Going from K26I to K26F, the abundance fitness falls from -0.117 ± 0.089 to -0.361 ± 0.088.

Compared with K26E, K26W is lower in abundance fitness: 0.107 ± 0.06 for the first, -0.146 ± 0.058 for the second.

K26V and K26G are within error of each other in abundance fitness: -0.149 ± 0.056 for the first, -0.178 ± 0.051 for the second.

First: L15Y
Second: L15C
The abundance fitness of the first is lower: -0.582 ± 0.12 for the first, -0.25 ± 0.079 for the second.

First: L15K
Second: L15R
The abundance fitness of the first is higher: -0.651 ± 0.095 for the first, -0.815 ± 0.054 for the second.

L15M and L15T are within error of each other in abundance fitness: -0.389 ± 0.069 for the first, -0.586 ± 0.13 for the second.

L15A and L15Q are within error of each other in abundance fitness: -0.494 ± 0.053 for the first, -0.405 ± 0.073 for the second.

Compared with L15E, L15D is higher in abundance fitness: -0.491 ± 0.054 for the first, -0.344 ± 0.069 for the second.

Going from L15G to L15W, the abundance fitness falls from -0.614 ± 0.049 to -1.04 ± 0.068.

Going from L15P to G24Q, the abundance fitness falls from -0.312 ± 0.075 to -0.612 ± 0.14.

Going from G24L to G24S, the abundance fitness rises from -0.984 ± 0.076 to -0.703 ± 0.072.

G24R and G24K are within error of each other in abundance fitness: -1.03 ± 0.051 for the first, -0.945 ± 0.12 for the second.

G24V and G24C are within error of each other in abundance fitness: -0.855 ± 0.057 for the first, -0.773 ± 0.079 for the second.

G24T and G24M are within error of each other in abundance fitness: -0.837 ± 0.074 for the first, -0.81 ± 0.082 for the second.

Compared with G24Y, G24A is higher in abundance fitness: -1.1 ± 0.17 for the first, -0.832 ± 0.077 for the second.

Going from G24P to G24W, the abundance fitness falls from -0.578 ± 0.072 to -1.47 ± 0.08.

Compared with L6E, L6R is lower in abundance fitness: -0.26 ± 0.066 for the first, -0.572 ± 0.052 for the second.

First: L6I
Second: L6N
The abundance fitness of the first is lower: -0.7 ± 0.31 for the first, -0.236 ± 0.14 for the second.

First: L6C
Second: L6G
The abundance fitness of the first is lower: -1.02 ± 0.13 for the first, -0.485 ± 0.049 for the second.

Going from L6Y to L6Q, the abundance fitness rises from -0.46 ± 0.15 to -0.198 ± 0.075.

Going from L6V to L6T, the abundance fitness rises from -0.425 ± 0.06 to 0.024 ± 0.18.

Compared with L6M, L6H is lower in abundance fitness: 0.348 ± 0.11 for the first, -0.496 ± 0.12 for the second.

Going from L6F to L6D, the abundance fitness falls from -0.063 ± 0.15 to -0.845 ± 0.23.

Compared with L6P, L6K is higher in abundance fitness: -0.48 ± 0.074 for the first, -0.144 ± 0.089 for the second.

Compared with L6S, L6W is higher in abundance fitness: -0.476 ± 0.059 for the first, -0.281 ± 0.056 for the second.

S13R and S13W are within error of each other in abundance fitness: 0.055 ± 0.05 for the first, -0.033 ± 0.055 for the second.

Going from S13P to S13E, the abundance fitness rises from -0.385 ± 0.1 to 0.262 ± 0.066.

S13V and S13Y are within error of each other in abundance fitness: -0.006 ± 0.056 for the first, 0.065 ± 0.1 for the second.

S13M and S13Q are within error of each other in abundance fitness: -0.058 ± 0.15 for the first, 0.146 ± 0.062 for the second.

S13G and S13T are within error of each other in abundance fitness: 0.035 ± 0.052 for the first, 0.022 ± 0.059 for the second.

S13F and S13N are within error of each other in abundance fitness: -0.04 ± 0.13 for the first, 0.016 ± 0.087 for the second.

S13I and S13K are within error of each other in abundance fitness: 0.039 ± 0.1 for the first, 0.085 ± 0.07 for the second.

S13L and S13A are within error of each other in abundance fitness: 0.093 ± 0.058 for the first, 0.153 ± 0.052 for the second.

First: Q16E
Second: Q16C
The abundance fitness of the first is higher: 0.098 ± 0.055 for the first, -0.299 ± 0.09 for the second.

Q16D and Q16M are within error of each other in abundance fitness: -0.079 ± 0.082 for the first, -0.013 ± 0.079 for the second.

Q16H and Q16T are within error of each other in abundance fitness: -0.178 ± 0.24 for the first, -0.03 ± 0.061 for the second.

Q16R and Q16A are within error of each other in abundance fitness: -0.104 ± 0.054 for the first, -0.047 ± 0.053 for the second.

Q16G and Q16V are within error of each other in abundance fitness: -0.171 ± 0.048 for the first, -0.077 ± 0.059 for the second.

Q16N and Q16S are within error of each other in abundance fitness: -0.074 ± 0.13 for the first, -0.032 ± 0.071 for the second.

First: Q16I
Second: Q16Y
The abundance fitness of the first is higher: 0.169 ± 0.12 for the first, -0.405 ± 0.39 for the second.

Going from Q16W to Q16L, the abundance fitness rises from -0.539 ± 0.058 to -0.09 ± 0.068.

R5N and R5S are within error of each other in abundance fitness: -0.03 ± 0.19 for the first, 0.046 ± 0.055 for the second.

R5Y and R5W are within error of each other in abundance fitness: -0.247 ± 0.16 for the first, -0.256 ± 0.056 for the second.

R5P and R5V are within error of each other in abundance fitness: -0.435 ± 0.074 for the first, -0.35 ± 0.059 for the second.

R5M and R5Q are within error of each other in abundance fitness: -0.038 ± 0.096 for the first, 0.006 ± 0.055 for the second.

Compared with E10V, E10K is lower in abundance fitness: -0.376 ± 0.059 for the first, -1.08 ± 0.13 for the second.

Going from E10R to E10Q, the abundance fitness rises from -0.619 ± 0.051 to -0.023 ± 0.098.

Compared with E10N, E10M is higher in abundance fitness: -0.726 ± 0.25 for the first, -0.329 ± 0.072 for the second.

Compared with E10Y, E10A is higher in abundance fitness: -0.869 ± 0.21 for the first, -0.336 ± 0.056 for the second.

E10W and E10S are within error of each other in abundance fitness: -0.599 ± 0.066 for the first, -0.512 ± 0.066 for the second.

E10L and E10P are within error of each other in abundance fitness: -0.641 ± 0.057 for the first, -0.758 ± 0.088 for the second.

First: E10T
Second: L11R
The abundance fitness of the first is higher: -0.305 ± 0.079 for the first, -0.641 ± 0.049 for the second.

Going from L11I to L11C, the abundance fitness falls from -0.109 ± 0.09 to -0.988 ± 0.15.

Compared with L11K, L11M is higher in abundance fitness: -0.495 ± 0.074 for the first, -0.055 ± 0.062 for the second.

Compared with L11E, L11P is lower in abundance fitness: -0.336 ± 0.056 for the first, -0.584 ± 0.065 for the second.

L11G and L11D are within error of each other in abundance fitness: -0.502 ± 0.046 for the first, -0.436 ± 0.085 for the second.

Compared with L11W, L11Q is higher in abundance fitness: -1.08 ± 0.071 for the first, -0.448 ± 0.071 for the second.

L11F and L11S are within error of each other in abundance fitness: -0.574 ± 0.16 for the first, -0.438 ± 0.059 for the second.

Going from L11T to L11H, the abundance fitness falls from -0.436 ± 0.082 to -0.827 ± 0.22.

L11V and L11N are within error of each other in abundance fitness: -0.375 ± 0.059 for the first, -0.435 ± 0.091 for the second.

In the case of L11A, the abundance fitness is reported as -0.458 ± 0.052.
